Data from paper PMC7017188.

Target: His-tagged eukaryotic initiation factor 6 (eIF6), full length recombinant (UniProt P56537)
Assay: AlphaScreen or HTRF; competition: serial dilution of non-biotinylated 60S against the optimised assay (eIF6 75 nM, 60S-Bio 0.5 nM); PBS pH 7.4, 5 mM MgCl2, 0.2% BSA, 0.02% Tween-20; room temperature; normalised between 100% displacement (no eIF6) and 0% displacement

IC50: 280 pM
Substance: non-biotinylated 60S ribosomal subunit (complex)
